From patent US20200297818A1 (ZEALAND PHARMA A S, published 2020)
*1 amine or outer side, *2 acyl side, *3 side chain or, on linkers, in order; H or OH if unused. Side-chain parts run from the residue outwards. [ ]: non-standard residue; d: D form. The star is where a group is joined. C20 diacid = O=C(O)CCCCCCCCCCCCCCCCCCC(=O)*; γGlu = O=C(O)[C@H](CCC(=O)[*:2])N[*:1]; AEEA = NCCOCCOCC(=O)O; Aib = CC(C)(N)C(=O)O

What was measured:
[1] = biological target: human glucagon-like peptide 1 receptor (GLP-1 R) (human, UniProt P43220 24-463); assay: cell-based or functional assay
[2] = biological target: T1, human GLP-2 receptor (hGLP2-R) (human, UniProt O95838 1-553); assay: cell-based or functional assay
T1 sequence (looked up): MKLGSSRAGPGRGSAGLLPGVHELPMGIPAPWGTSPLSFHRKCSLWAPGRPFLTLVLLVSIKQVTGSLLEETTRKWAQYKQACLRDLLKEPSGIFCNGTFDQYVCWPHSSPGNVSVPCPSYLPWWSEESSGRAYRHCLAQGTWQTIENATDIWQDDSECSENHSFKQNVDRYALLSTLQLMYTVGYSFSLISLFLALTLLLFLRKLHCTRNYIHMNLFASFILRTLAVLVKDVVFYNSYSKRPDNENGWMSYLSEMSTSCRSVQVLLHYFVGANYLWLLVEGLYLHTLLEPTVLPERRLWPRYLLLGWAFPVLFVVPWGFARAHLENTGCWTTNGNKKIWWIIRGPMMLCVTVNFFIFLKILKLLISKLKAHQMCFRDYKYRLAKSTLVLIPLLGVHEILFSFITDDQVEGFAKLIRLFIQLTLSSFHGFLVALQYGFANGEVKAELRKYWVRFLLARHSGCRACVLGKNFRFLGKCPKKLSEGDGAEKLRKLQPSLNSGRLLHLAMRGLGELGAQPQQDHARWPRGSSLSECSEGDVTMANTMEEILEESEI

B1: Compound 40 (peptide)
peptide: HXEGSFTSELATILDEQAARDFIAWLIEHKITDXXXXXXX
HELM: PEPTIDE1{H.[Aib].E.G.S.F.T.S.E.L.A.T.I.L.D.E.Q.A.A.R.D.F.I.A.W.L.I.E.H.K.I.T.D.[dK].[dK].[dK].[dK].[dK].[dK].[am]}|PEPTIDE2{[O=C(O)CCCCCCCCCCCCCCCCC(=O)[*:2]].[gGlu]}$PEPTIDE1,PEPTIDE2,39:R3-2:R2$$$V2.0
SMILES: CC[C@H](C)[C@H](NC(=O)[C@H](Cc1ccccc1)NC(=O)[C@H](CC(=O)O)NC(=O)[C@H](CCCNC(=N)N)NC(=O)[C@H](C)NC(=O)[C@H](C)NC(=O)[C@H](CCC(N)=O)NC(=O)[C@H](CCC(=O)O)NC(=O)[C@H](CC(=O)O)NC(=O)[C@H](CC(C)C)NC(=O)[C@@H](NC(=O)[C@@H](NC(=O)[C@H](C)NC(=O)[C@H](CC(C)C)NC(=O)[C@H](CCC(=O)O)NC(=O)[C@H](CO)NC(=O)[C@@H](NC(=O)[C@H](Cc1ccccc1)NC(=O)[C@H](CO)NC(=O)CNC(=O)[C@H](CCC(=O)O)NC(=O)C(C)(C)NC(=O)[C@@H](N)Cc1c[nH]cn1)[C@@H](C)O)[C@@H](C)O)[C@@H](C)CC)C(=O)N[C@@H](C)C(=O)N[C@@H](Cc1c[nH]c2ccccc12)C(=O)N[C@@H](CC(C)C)C(=O)N[C@H](C(=O)N[C@@H](CCC(=O)O)C(=O)N[C@@H](Cc1c[nH]cn1)C(=O)N[C@@H](CCCCN)C(=O)N[C@H](C(=O)N[C@H](C(=O)N[C@@H](CC(=O)O)C(=O)N[C@H](CCCCN)C(=O)N[C@H](CCCCN)C(=O)N[C@H](CCCCN)C(=O)N[C@H](CCCCN)C(=O)N[C@H](CCCCN)C(=O)N[C@H](CCCCNC(=O)CC[C@H](NC(=O)CCCCCCCCCCCCCCCCC(=O)O)C(=O)O)C(N)=O)[C@@H](C)O)[C@@H](C)CC)[C@@H](C)CC
EC50 GLP-1 (nM); cAMP response [1]: 0.074 nM
EC50 GLP-2 (nM); cAMP response [2]: 0.5 nM

B2: Compound 43 (peptide)
peptide: H-H[Aib]EGSFTSELATILDK([AEEA-AEEA-γGlu-C20 diacid])KAARDFIAWLIEHKITD-OH
SMILES: CC[C@H](C)[C@H](NC(=O)[C@H](Cc1ccccc1)NC(=O)[C@H](CC(=O)O)NC(=O)[C@H](CCCNC(=N)N)NC(=O)[C@H](C)NC(=O)[C@H](C)NC(=O)[C@H](CCCCN)NC(=O)[C@H](CCCCNC(=O)COCCOCCNC(=O)COCCOCCNC(=O)CC[C@H](NC(=O)CCCCCCCCCCCCCCCCCCC(=O)O)C(=O)O)NC(=O)[C@H](CC(=O)O)NC(=O)[C@H](CC(C)C)NC(=O)[C@@H](NC(=O)[C@@H](NC(=O)[C@H](C)NC(=O)[C@H](CC(C)C)NC(=O)[C@H](CCC(=O)O)NC(=O)[C@H](CO)NC(=O)[C@@H](NC(=O)[C@H](Cc1ccccc1)NC(=O)[C@H](CO)NC(=O)CNC(=O)[C@H](CCC(=O)O)NC(=O)C(C)(C)NC(=O)[C@@H](N)Cc1c[nH]cn1)[C@@H](C)O)[C@@H](C)O)[C@@H](C)CC)C(=O)N[C@@H](C)C(=O)N[C@@H](Cc1c[nH]c2ccccc12)C(=O)N[C@@H](CC(C)C)C(=O)N[C@H](C(=O)N[C@@H](CCC(=O)O)C(=O)N[C@@H](Cc1c[nH]cn1)C(=O)N[C@@H](CCCCN)C(=O)N[C@H](C(=O)N[C@H](C(=O)N[C@@H](CC(=O)O)C(=O)O)[C@@H](C)O)[C@@H](C)CC)[C@@H](C)CC
EC50 GLP-1 (nM); cAMP response [1]: 0.096 nM
EC50 GLP-2 (nM); cAMP response [2]: 0.15 nM

H-H[Aib]EGTFTSELATILDK([γGlu-C20 diacid])QAARDFIAWLIQHKITD-OH [Compound 41]
EC50 GLP-1 (nM); cAMP response [1]: 0.048 nM
EC50 GLP-2 (nM); cAMP response [2]: 0.62 nM

B3: Compound 45 (peptide)
peptide: H-H[Aib]EGSFTSELATILDEQAAK([AEEA-AEEA-γGlu-C20 diacid])DFIAWLIEHKITD-OH
SMILES: CC[C@H](C)[C@H](NC(=O)[C@H](Cc1ccccc1)NC(=O)[C@H](CC(=O)O)NC(=O)[C@H](CCCCNC(=O)COCCOCCNC(=O)COCCOCCNC(=O)CC[C@H](NC(=O)CCCCCCCCCCCCCCCCCCC(=O)O)C(=O)O)NC(=O)[C@H](C)NC(=O)[C@H](C)NC(=O)[C@H](CCC(N)=O)NC(=O)[C@H](CCC(=O)O)NC(=O)[C@H](CC(=O)O)NC(=O)[C@H](CC(C)C)NC(=O)[C@@H](NC(=O)[C@@H](NC(=O)[C@H](C)NC(=O)[C@H](CC(C)C)NC(=O)[C@H](CCC(=O)O)NC(=O)[C@H](CO)NC(=O)[C@@H](NC(=O)[C@H](Cc1ccccc1)NC(=O)[C@H](CO)NC(=O)CNC(=O)[C@H](CCC(=O)O)NC(=O)C(C)(C)NC(=O)[C@@H](N)Cc1c[nH]cn1)[C@@H](C)O)[C@@H](C)O)[C@@H](C)CC)C(=O)N[C@@H](C)C(=O)N[C@@H](Cc1c[nH]c2ccccc12)C(=O)N[C@@H](CC(C)C)C(=O)N[C@H](C(=O)N[C@@H](CCC(=O)O)C(=O)N[C@@H](Cc1c[nH]cn1)C(=O)N[C@@H](CCCCN)C(=O)N[C@H](C(=O)N[C@H](C(=O)N[C@@H](CC(=O)O)C(=O)O)[C@@H](C)O)[C@@H](C)CC)[C@@H](C)CC
EC50 GLP-1 (nM); cAMP response [1]: 1.4 nM
EC50 GLP-2 (nM); cAMP response [2]: 0.36 nM

B4: Compound 42 (peptide)
peptide: H-H[Aib]EGSFTSEK([AEEA-AEEA-γGlu-C20 diacid])ATILDEQAARDFIAWLIEHKITD-OH
SMILES: CC[C@H](C)[C@H](NC(=O)[C@H](Cc1ccccc1)NC(=O)[C@H](CC(=O)O)NC(=O)[C@H](CCCNC(=N)N)NC(=O)[C@H](C)NC(=O)[C@H](C)NC(=O)[C@H](CCC(N)=O)NC(=O)[C@H](CCC(=O)O)NC(=O)[C@H](CC(=O)O)NC(=O)[C@H](CC(C)C)NC(=O)[C@@H](NC(=O)[C@@H](NC(=O)[C@H](C)NC(=O)[C@H](CCCCNC(=O)COCCOCCNC(=O)COCCOCCNC(=O)CC[C@H](NC(=O)CCCCCCCCCCCCCCCCCCC(=O)O)C(=O)O)NC(=O)[C@H](CCC(=O)O)NC(=O)[C@H](CO)NC(=O)[C@@H](NC(=O)[C@H](Cc1ccccc1)NC(=O)[C@H](CO)NC(=O)CNC(=O)[C@H](CCC(=O)O)NC(=O)C(C)(C)NC(=O)[C@@H](N)Cc1c[nH]cn1)[C@@H](C)O)[C@@H](C)O)[C@@H](C)CC)C(=O)N[C@@H](C)C(=O)N[C@@H](Cc1c[nH]c2ccccc12)C(=O)N[C@@H](CC(C)C)C(=O)N[C@H](C(=O)N[C@@H](CCC(=O)O)C(=O)N[C@@H](Cc1c[nH]cn1)C(=O)N[C@@H](CCCCN)C(=O)N[C@H](C(=O)N[C@H](C(=O)N[C@@H](CC(=O)O)C(=O)O)[C@@H](C)O)[C@@H](C)CC)[C@@H](C)CC
EC50 GLP-1 (nM); cAMP response [1]: 0.067 nM
EC50 GLP-2 (nM); cAMP response [2]: 0.33 nM

B5: Compound 46 (peptide)
peptide: H-H[Aib]EGTFTSELATILDEQAAK([AEEA-AEEA-γGlu-C20 diacid])DFIAWLIEHKITD-OH
SMILES: CC[C@H](C)[C@H](NC(=O)[C@H](Cc1ccccc1)NC(=O)[C@H](CC(=O)O)NC(=O)[C@H](CCCCNC(=O)COCCOCCNC(=O)COCCOCCNC(=O)CC[C@H](NC(=O)CCCCCCCCCCCCCCCCCCC(=O)O)C(=O)O)NC(=O)[C@H](C)NC(=O)[C@H](C)NC(=O)[C@H](CCC(N)=O)NC(=O)[C@H](CCC(=O)O)NC(=O)[C@H](CC(=O)O)NC(=O)[C@H](CC(C)C)NC(=O)[C@@H](NC(=O)[C@@H](NC(=O)[C@H](C)NC(=O)[C@H](CC(C)C)NC(=O)[C@H](CCC(=O)O)NC(=O)[C@H](CO)NC(=O)[C@@H](NC(=O)[C@H](Cc1ccccc1)NC(=O)[C@@H](NC(=O)CNC(=O)[C@H](CCC(=O)O)NC(=O)C(C)(C)NC(=O)[C@@H](N)Cc1c[nH]cn1)[C@@H](C)O)[C@@H](C)O)[C@@H](C)O)[C@@H](C)CC)C(=O)N[C@@H](C)C(=O)N[C@@H](Cc1c[nH]c2ccccc12)C(=O)N[C@@H](CC(C)C)C(=O)N[C@H](C(=O)N[C@@H](CCC(=O)O)C(=O)N[C@@H](Cc1c[nH]cn1)C(=O)N[C@@H](CCCCN)C(=O)N[C@H](C(=O)N[C@H](C(=O)N[C@@H](CC(=O)O)C(=O)O)[C@@H](C)O)[C@@H](C)CC)[C@@H](C)CC
EC50 GLP-1 (nM); cAMP response [1]: 0.26 nM
EC50 GLP-2 (nM); cAMP response [2]: 0.38 nM

H-H[Aib]EGSFTSELATILEGK([AEEA-AEEA-γGlu-C20 diacid])AARDFIAWLIEHKITD-OH [Compound 44]
EC50 GLP-1 (nM); cAMP response [1]: 0.063 nM
EC50 GLP-2 (nM); cAMP response [2]: 0.14 nM
